The values that follow come from paper PMC3814348 (PLoS Pathogens, 2013).

This test addresses Hrs, purified recombinant ( (human, mouse or zebrafish …, UniProt O14964 1-777)). Put plainly: pull-down. As to conditions: both partners purified.

B1: EsxGMt EsxHMt-6XHis heterodimer (complex)
chain 1: MSLLDAHIPQLVASQSAFAAKAGLMRHTIGQAEQAAMSAQAFHQGESSAAFQAAHARFVAAAAKVNTLLDVAQANLGEAAGTYVAADAAAASTYTGF
chain 2: MSQIMYNYPAMLGHAGDMAGYAGTLQSLGAEIAVEQAALQSAWQGDTGITYQAWQAQWNQAMEDLVRAYHAMSSTHEANTMAMMARDTAEAAKWGG
B1: the Kd – broadly, the free concentration of one partner at which half of the binding sites on the other are occupied at equilibrium, for simple one-to-one binding – was determined as 5.4 µM.
